Results on 15 sequences are retold here after the DeepSol protein solubility set.

A short description of this data set: soluble on expression in E. coli; label from the status in PepcDB or PDB records.
Regarding “MAHHHHHHMGVGLSTVRHAGTAILVPTVSAASTAVLPLSSEERVAALPGTTTPPAAAAAPAPPTAEHTSNPRQRLTDTPAAHAAVSLPHAAPKPHRRFLPYPEEASALATPPPAAVLTAAPVVVEAAVKRHRKGSRVTKPLHPAQASLFTWAEGGQRNATGDAIIAGDHLRRRCCPDAGVVANRSMDCDEDATLVVRSPDEGRRSGTSLQSEGGLYGEKGQRQFAASGQWSPSPASPEAEEVAATVCASVNATAVENAPSGPAAPLLSSAFTAYRPVARSASPGPALGQYEGLPLTSVQQVLESKHKVYRICLTGGPCAGKSTMLSAIQAKIPQRTGFRVMCVPEAATLLVTGGMQWDGDLTVPQQLGLLRTQLALEDQFYALAVASHVPTVIVSDRGTMDGRAFCTDAQFQEILRGVGSTIDVLRDRYDAVIHMVTAADGAEEFYNLDNPARYEDLDGARASDLRLQRMYVGHPMFRLLDNSTTFEDKIERGLQVVSQVVHKEQCAPALPTYYLVRRCPAELPVASATYTTYTTVLGNSQISDIRLLVKREMADGSTMHFFKSVRDAPSTVPSSRAPPRATSHASSGASFRSSVNAPTVSTASPTQQRTRAPNASAAASTRACASTATAPALRW”, the “soluble on expression in E. coli” value was “not soluble”.
As to “MGSDKIHHHHHHMAFRGWKKLPIRIETGEMVEAIAPVIVSASRATDIPAFHAEWFMTRLRAGYVQWCNPFNARQTQYVSFRKTRAVIFWSKNPAPLLPHLSELDAIGINYSFQFTLNDYEAEGLEPYVLPLAKRIETFRRLASHIGPERVVWRFDPLVLTGRLTADMLLERIGRLAEALGGQTRKLVISFADIECYRAVRLRLSRMGAGAREFAPEEMDEFAARLVERNKDWGLELSACAEDSELAGIAKSRCIDGHVLASCFGDDAELMEFLGGSTLFPGDAPVSVALKHQGQRKACGCIVSKDIGVYGTCQHGCRYCYACR”, the “soluble on expression in E. coli” value is given as “not soluble”.
With “MSVLSIIACEMLEDELVYVLSKDQNAVRLILVENRQCFRFVRKLKSGNCQARIFPPERISFFIKQMNRPASMKIPNFLLKFPFFGKIHENMKEKNRETITVVVNILKLGLHADCDLLKSEIYRNMKEMVEFSDGILIFYGNCGRPLRGLEAEFKDFNCPLYFLEDEKGNIVDDCISIALGGNDNYAEVMQSGNGTGMIYLTPMWASSWKEMRMEPGDTSDFNVSFLKRHYRKVVKISNEISMGSEFDKNVLNYARTFDMSIIEMKGSMEIAMKSYMNARNGICKKDPIQKSSLEHHHHHH” the entry was “not soluble”; with “ADLGHQTLGSNDGWGAYSTGTTGGSKASSSNVYTVSNRNQLVSALGKETNTTPKIIYIKGTIDMNVDDNLKPLGLNDYKDPEYDLDKYLKAYDPSTWGKKEPSGTQEEARARSQKNQKARVMVDIPANTTIVGSGTNAKVVGGNFQIKSDNVIIRNIEFQDAYDYFPQWDPTAGSSGNWASQYDNITINGGTHIWIDHCTFNDGSRPDSTSPKYYGRKYQHHDGQTDASNGANYITMSYNYYHDHDASSIFGSSDSKTSDDGKLKITLHHNRYKNIVQRAPRVRFGQVHVYNNYYEGSTSSSSYPFSYAWGIGKSSKIYAQNNVIDVPGLSAAKTISVFSGGTALYDSGTLLNGTQINASAANGLSSSVGWTPSLHGSIDASANVKSNVINQAGAGKLN”, “soluble”.
With “MTLGELREEVWNALARYDLALHPTPPHGHHPNFLGARRAAERLLKTPEFQGARRVLAGMDAVLKPLREEALRQGKELLLPHPDRPGEFLLLRDVDPRKLKRVREAYRFGVRVALEEATPDLVLIGAVAVDEEGGWVGKGYGFPQSWLRVEAPFATLAHPVMVYPRLPVPPERRVDLIATPQRLLRLG” the entry was “soluble”; with “MTLLLPRRRFSALLDHIKNWTSSIRADKQYRSFSTGDLVSPSQPSAFEPDFMEMEFGATPTTSSLPSHFDDNDLVPVEFKKSGVKLIPQGTRKAEKAKKFGSFEELSKVKLEDIHRAQSWFFVDVDPKSAERILMSNGFSDSSFLISFFRQKYVLSIWRKTKVEHLVIRNYQKKNGTMAFQLDIDRSFKNLVELTEYYTKNKSYVLCTKLSKGVSRPRRNPDTRTRA”, “not soluble”.
The value for “MSTRWRYYNSKRGNGFRGRGRGRGRGTSLTAVALPRDDNFHKGAQDGAYFKDMPMDPEQFRDETVLSLSFAQGMLGAAYYEQSSQLLKIMNDISEDLEFRFLKRLIDDVKPTLIIANRSQDLEFIKFLTTRYDPQEKIYEDGTTEEGTSEDTVPTWDSSLAYSTDETTAEKEEKEEDEDDDDEGLPAKLNKLPNNFFRMSRAIERLKAMAGSHDSSMTEEDKYIIIKMRFDIEAVNMIRSFGALLLFLDETRMGVTDDPLSVTSPIKSIKTFTLGNLVEIDFNTIQALDILPKETENKKTFGQGRSLYQLMDKCRSTVGKKCLRKWFRNPTTDRDDLVSRQKCVHYFKQDWNAEVTAKLSSILGRVKALNSVFQKFQSGTAQLIHWECFVSTVNALVEILNIIRQTPISKEFPVESDLLREVSEIAVIAGSIINFAESKIQGRVTVMNGIDEELDEIRDTYENMPMVLTAIAKQEEARLGLPPYSNVACVYIPLVGFVLSVPRDYGVESQPDMTLLYSTHEDLRVRNATTSRLDDEFGDILMRLIDSQTAIILTLKTRVMKKKRSIIKLLSIASRIDVLISFGLIAAQNGWNCPALVDEPVIEAVELYHPISVLVVKKSFVPNQVSSGRDGIKASIITGPNACGKSVYMKSIGIMVFLSHIGSFVPARHAKIGIVDRIVTRMFTVDSVLDGMSTFAKDVEQVALALRKATGNSLVIIDEFGKGTMTEVGLSLLASVMTYWMNRGADRCPHIFLSSHFHALPNYIPLETNIATFLTFTVLREAGGKIKYLFRMTPGLVDCSFALSVAKEEGIPPPVIGRACRIYKALKAGTLLKEIKAEVSNDNEKQLVEDMDVVLADEDGFMAAVESFVKRKKTSFCESSMRNVSEEIEKERSEASTPASKSRSTITARSNSVLSSRSMASVDQLSVLDALLPKKKKKKVTGSSMESSMSPDPFQEEDEGTEGEEDQISAPVSRPTLPSVQKYASEEEKQQSINSRHSFSTRTAIHIPTPIQMGEAGGVKRPRSTSTSSPGPSASKSVRTEVFKKTPNVKESQVLETPKQLSISSFLEPKFPSSEKDVISRVSERYLQSDPFKTPISDRRSQQSSRHSTPKNRSMNQSLIQSARDTPHETIRSSNEVNPEFFNIFNFPDDSILKSQDTYDPNVTPRSSSRRELRPDVSHSQNSQFGEVFSELGTQFSIFNSQQSFPGNSMGTTNPDCSIFDDFFANSQDGEKKIDSTKTSMPIVNSDNFIFKTPEPRSSEKQRSLLKNKGQASNSSISPSSLILGQLAFGDVDQTPRPRGDNPIEFQYDVVDDDDPIFEEKNCSAPVFEFLKSNDDEEDDEFLKSFLETEGSLHIDTSADETIDRSKRS” was “not soluble”; that for “MGTYKKEKSRIGREGANEKKPGNLRVKGENFYRNAKDVARVNMYRGGKAKYNAAGELVRAAEFQSSEVPKARIQPDRRWFNNTRVIAQPTLTQFREAMGQKLNDPYQVLLRRNKLPMSLLQENTEIPKVRVLESEPFENTFGPKSQRKRPKISFDSVAELAKESDEKQNAYEEKIEERILANPDESDDVMLAARDAIFSKGQSKRIWNELYKVIDSSDVLIQVLDARDPVGTRCGTVERYLRNEASHKHMILVLNKVDLVPTSVAAAWVKILAKEYPTIAFHASINNSFGKGSLIQILRQFASLHSDKKQISVGLIGFPNAGKSSIINTLRKKKVCNVAPIPGETKVWQYVALMKRIFLIDCPGIVPPSSNDSDAELLLKGVVRVENVSNPEAYIPTVLSRCKVKHLERTYEISGWNDSTEFLAKLAKKGGRLLKGGEPDEASVAKMVLNDFMRGKIPWFIGPKGLSSSNDEINSSQKVATQQTEGSDQDGEEAEEEWHGISDDGKADESESTKPVAEGSASESTDESAVDDNKNRS” was “not soluble”; that for “MAGDPMRRTLYRLMIELTNGRFTSYILRKFAQSRLSSIIIPSYAKVFQINQDEMEKGLKEYRTLHELFTRKLKEGKRSIDTDASSIVSPVDGVFADHGPIEDTKTFDIKGKRYSIVDMLGNEERATRYAGGTYMVIYLSPSHYHRIHSPLSGSVTERFVLGRKSYPVNAAGMEYGKEPLSKNYRSVTEVSSDGEHMALVKVGAMFVNSIELLHERDTVQKGEEMAYFTFGSTVVLLFEKDMIEVVQELKSGQELRLGEKIATRLAHKLEHHHHHH” was “not soluble”.
With “MMEITRETMSFTSTTPSARAPLGGRTTGNVTSQDRMLKIVTEMRSGAGSGLSPFGQNAASTIRDSREREKKEMSDLNDRLASYIEKVRFLEAQNRKLAADLDALRSKWGKDTHNIRNMYEGELVDAQKLIDETNKQRKDMEGQLKKMQDELAEMRRKLEDATKGREQDRAKIDALLVTLSNLEAEISLLKRRIAQLEDEVKRIKQENQRLLSELQRARTDLDQETLNRIDYQNQVQTLLEEIDFLRRVHDNEIKELQTLASRDTTPENREFFKNELSSAIRDIREEYDQVNNVHRNDMESWYRLKVQEIQTQSARQNMEQGYAKEEVKRLRTQLSDLRGKLADLESRNSLLEKQIQELNYQLEDDQRSYEAALNDRDSQIRKMREECQALMVELQMLLDTKQTLDAEIAIYRKMLEGEENRAGLKQLVEQVVKTHAITQETDTETMRVVKGETASRQSFQRSAKGNVSIHEASPDGKFIVLQNTHRAKDEAIGEWKLKRRIDGKRENVYTLPRDFVLRAGKTLKIFARNQGVASPPDQLVYDAEDSFGSGNNVQTILFNKEGEERATHIQRQSTA”, the “soluble on expression in E. coli” value was “not soluble”.
As to “MNDEIKVSVLIITYNQARFIKKAIESALEQKTKFKYEIIVMDDCSSDSTIKIAGKYAEKYTDIIKVYSNNKNLGITKNYKEGFKKCRGEYIAVLEGDDYWNNKQKLQIQSNFLDRHKNFSAVFNRYIIYNAINNSKATQAWRSNTSYETITIEQLTRGNVIGNFSTCMYRKSCVDKVKESLYDMLVYDWMFNMVIAEQKPIAYLPQICSVYRIHSRGTWMGNSVKNRLALTIKLIDVYNAFFGFKYNSNFKLLKKNVYKQLINLEHHHHHH”, the “soluble on expression in E. coli” value is given as “soluble”.
With “MGHYRGTWLEIGRMPMLLTDGCVAGYSTYRQGKSADEVLVEDGCREGTPQGKLKTINGVGKIEDFASTKAKMRVRYPLLITFNYWVLYKSPDKSWFISANPSTEDVWVYARSVPSKAKLNRMMMKVRELGYDVKKLEFPLEHHHHHH” the entry was “soluble”; with “MGSDKIHHHHHHMNRELILKALIDWNFWYKNQFVGIEREYSDQLLDLLEKGLAISVIGVKRSGKSTIINQVVKKLIEKKGEDPFDTLIVNFEDSRFGDIRTANDLFSLYELYKELRKKKKDSKPYIFLDEVQKIKGWEGFVRSIVDRKEANIVISGSTASVNNKSVREVLAGRHLILEVFPLSFKEFLEFKNIRLETELDMIAKESEIKVLFSEYLSYGGFPLVVSNERDKEKILLQLYEDIIFKDVISECNIRNEEEAKNLAIFYISNVGNKIRFRKISRSLNIPFRNVQRYTECMKNAYLIFFVKALSPKLSEMAKYDKKVYCIDNGISNVLGYRLNQNIGSLFENLIFLELLRRYGINNVFYYRGRRGEVDFVVKVKDEIREIYQVTYQLSDVERELKGIEEFLKIRKTKAYIITFDDEGEIKVGDDLVKVVKGWKWLLLE”, “not soluble”.
The value for “MHHHHHHSSRQEPPKIHLDCPGRIPDTIVVVAGNKLRLDVPISGDPAPTVIWQKAITQGNKAPARPAPDAPEDTGDSDEWVFDKKLLCETEGRVRVETTKDRSIFTVEGAEKEDEGVYTVTVKNPVGEDQVNLTVKVID” was “soluble”; that for “MVPLTEENVESVLDEIRPYLMSDGGNVALHEIDGNVVRVKLQGACGSCPSSTMTMKMGIERRLMEKIPEIVAVEALPDEETGLELNEENIEKVLEEIRPYLIGTADGSLDLVEIEDPIVKIRITGPAAGVMTVRVAVTQKLREKIPSIAAVQLI” was “soluble”.
